The experiment concerns the target human CD3-ε (human) (UniProt P07766).
Chain of UniProt P07766 (P07766 23-207): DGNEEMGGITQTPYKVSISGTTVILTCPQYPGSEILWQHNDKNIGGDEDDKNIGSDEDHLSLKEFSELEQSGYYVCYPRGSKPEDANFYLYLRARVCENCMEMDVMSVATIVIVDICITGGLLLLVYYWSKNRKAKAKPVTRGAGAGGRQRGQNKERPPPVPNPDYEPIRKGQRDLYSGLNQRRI

For G19-4 Fab, the Proliferation (day 3, cpm × 10^-3), Purified T Cells + (2 µg/ml 9.3) amounted to 58.4 cpm × 10^-3.

Regarding native anti-CD3 Mab G19-4 (antibody), the Proliferation (day 3, cpm × 10^-3), Purified T Cells + (0.5 ng/ml PMA) is 83.6 cpm × 10^-3.

B1: CD3 sFv (VL-VH, no tag) (scFv)
scFv: VDIQMTQTTSSLSASLGDRVTISCRASQDIRNYLNWYQQKPDGTVKLLIYYTSRLHSGVPSRFSGSGSGTDYSLTIANLQPEDIATYFCQQGNTLPWTFGGGTKLVTKRELGGGGSGGGGSGGGGSIDEVQLQQSGPELVKPGASMTMSCKASGYSFTGYIVNWLKQSHGKNLEWIGLINPWKGLTTYNQKFKGKATLTVDKSSSTAYMELLSLTSEDSAVYYCARSGYYGDSDWYFDVWGAGTTCTVSSFESDQSNSEEAKKEEAKKEEAKKSNSLESL
As for B1, the Proliferation (day 3, cpm × 10^-3), Purified T Cells + (0.5 ng/ml PMA) stood at 65 cpm × 10^-3.

(Values after patent US7915395B2.)
